Test results from PMC11402289, “Structural basis for RNA recognition by the C-terminal RRM domain of human RBM45”.

T1: RBM45 RRM3 (Homo sapiens, UniProt Q8IUH3 370-476)
T1 sequence: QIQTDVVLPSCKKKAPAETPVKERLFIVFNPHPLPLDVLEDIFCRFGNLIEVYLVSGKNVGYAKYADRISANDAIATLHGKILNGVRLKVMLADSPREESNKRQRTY


Assays:
[1] = biological target: T1, RBM45 RRM3; test: fluorescence polarization; FP: 100 nM FAM-RNA/ssDNA, 10 mM Tris-HCl pH 7.5, 200 mM NaCl, 1 mM DTT, 1 mM EDTA, 5% glycerol, 25 °C, 30 min; details: protein: recombinant; tags: C-terminal His-tag; label: 5'-FAM
[2] = biological target: T1, RBM45 RRM3; test: fluorescence polarization; also printed as 33.6; FP: 100 nM FAM-RNA/ssDNA, 10 mM Tris-HCl pH 7.5, 200 mM NaCl, 1 mM DTT, 1 mM EDTA, 5% glycerol, 25 °C, 30 min; details: protein: recombinant; tags: C-terminal His-tag; label: 5'-FAM
[3] = biological target: T1, RBM45 RRM3; test: fluorescence polarization; m6A comparison experiment; FP: 100 nM FAM-RNA/ssDNA, 10 mM Tris-HCl pH 7.5, 200 mM NaCl, 1 mM DTT, 1 mM EDTA, 5% glycerol, 25 °C, 30 min; details: protein: recombinant; tags: C-terminal His-tag; label: 5'-FAM
[4] = biological target: T1, RBM45 RRM3; test: X-ray crystallography; 1.65 A; 0.1 M sodium succinate pH 5.3, 8% PEG 2000; FP: 100 nM FAM-RNA/ssDNA, 10 mM Tris-HCl pH 7.5, 200 mM NaCl, 1 mM DTT, 1 mM EDTA, 5% glycerol, 25 °C, 30 min; details: protein: recombinant; tags: C-terminal His-tag

| Binder | Kd [1] [µM] | also measured |
| --- | --- | --- |
| GGACGU (ssRNA) | 1.21 ± 0.26 | – |
| GGACAG (ssRNA) | 28.1 ± 6.62 | – |
| GGGCGG (ssRNA) | 59.3 ± 21.2 | – |
| GGCCGG (ssRNA) | 71 ± 16.1 | – |
| GGACGG (ssDNA) [GGACGG ssDNA] | 8.77 ± 0.61 | – |
| GGACCG (ssRNA) | – | Kd [2]: 32.6 ± 6.22 µM |
| AGACGG (ssRNA) | 3.11 ± 0.48 | – |
| GGUCGG (ssRNA) | 71.6 ± 16.9 | – |
| UGACGG (ssRNA) | 2.13 ± 0.37 | – |
| GGACGG (ssRNA, m6A at position 3) [GG(m6A)CGG RNA] | 4.62 ± 0.55 | – |
| GGAUGG (ssRNA) | 63.6 ± 12.1 | – |
| GGACGA (ssRNA) | 1.16 ± 0.27 | – |
| GGAAGG (ssRNA) | 91.6 ± 17.6 | – |
| GUACGG (ssRNA) | 9.31 ± 1.93 | – |
| GGACGG (ssRNA) [GGACGG RNA] | 2.34 ± 0.38 | Kd [3]: 3.17 ± 0.3 µM |
| GAACGG (ssRNA) | 10.2 ± 1.97 | – |
| GGACUG (ssRNA) | 15.3 ± 2.1 | – |
| GACGCAG (ssDNA) [GACGCAG ssDNA] | – | binding result [4]: binds |
| CGACGG (ssRNA) | 1.99 ± 0.35 | – |
| GGAGGG (ssRNA) | 61.5 ± 45.7 | – |
| GGACGC (ssRNA) | 1.08 ± 0.21 | – |
| GCACGG (ssRNA) | 8.88 ± 2.32 | – |
| UUUUUU (ssRNA) [polyU 6-mer RNA] | 199 ± 114 | – |
